This is an account of results in patent publication US20140037650A1 (UNIVERSITY OF CHICAGO, published 2014).

T1: GST-tagged IsdA (Staphylococcus aureus, UniProt A5IS16 47-316)
T1 sequence: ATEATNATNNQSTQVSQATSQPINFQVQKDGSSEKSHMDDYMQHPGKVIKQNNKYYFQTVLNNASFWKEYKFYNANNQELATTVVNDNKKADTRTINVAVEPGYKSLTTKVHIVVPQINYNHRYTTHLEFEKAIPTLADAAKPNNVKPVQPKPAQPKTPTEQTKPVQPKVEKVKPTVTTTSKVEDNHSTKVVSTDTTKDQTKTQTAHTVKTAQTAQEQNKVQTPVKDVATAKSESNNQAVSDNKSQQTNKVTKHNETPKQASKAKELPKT

B1: MAb 5H8 (antibody, V domains shown)
VH: GLTGEPGTSVKMSCRTSGYTFTEYTMHWVKQSHEKRLEWIGGIDPSNGDTSYNQKFKGKATLTVDKSSSSAYMDLRSLTSVDSAIYYCARLEGVLPLDYWGHGTTLTVSS
VL: DIVMTQSQKFMSTSVRDRVAVTCKASQNVGTNVAWYQQKPGQSPKALIYSASYRYSGVPDRFTGSGSGTDFTLTISNVQSEDLAEYFCQQYNSYPYTFGGGTKLEVK
notes: also called 5H8.9
B2: MAb 3H11 (antibody, V domains shown)
VH: SLDLTGEPGASVKMSCRTSGYTFTEYTMHWVKQSHEKSLEWIGGIDPDNGDTSFNQKFKGKATLTVDKSSSTAYMELRSLTYDDTAIYLCARLEGVLPLDYWGQGTTLTVSS
VL: B1 VL
notes: also called 3H11.47
B3: MAb 7D4 (antibody, V domains shown)
VH: EVQLQESGPELVKPGTSVWISCKTSGFTFTKYTMHWVKQSHGKTLEWIGGIDPNNGDTSYNQKFKDKATLTVDKSSSTAYMELRSLTSEDSAVFFCVRLEGSLPLDYWGQGTTLTVSS
VL: DVGMTQTPLSLPVSLGDQASISCGSSQSLLHSNGKTYLHWYLQKPGQSPKLLIYKVSNRFSGVPDRFSGSGSGTYFTLKITRVEAEDLGVYFCSQTTHVPFTFGSGTKLEIK
B4: MAb 1B8 (antibody, V domains shown)
VH: B3 VH
VL: DVVMTQTPLSLPVSLGDQASISCRSSQSLVHSNGNTYLHWYLQKPGQSPKLLIYKVSSRFSGVPDRFSGSGSGTDFTLKISRVEAEDLGVYFCSQSTHVPYTFGGGTKLEIKR
B5: MAb 3D8 (antibody, V domains shown)
VH: QVQLQQSGAELVRPGTSVKVSCKASGNAFTNYLIEWIKQRPGQGLEWIGVINPGSGITNYNEKFKGKATLTADKSSNTAYMQLSSLSSDDSAVYFCSGSANWFAYWGQGTLVTVSA
VL: DVVMTQTPLSLPVSLGDQASISCRSSQSLVYSNGNTYLHWFLQKPGQSPKLLIYKVSNRFSGVPDRFSGSGSGTDFTLKISRVEAEDLGVYFCSQTTHIPLTFGAGTKLELK
B6: MAb 4H7 (antibody, V domains shown)
VH: EVQLLQSGPELVKPGTSVKMSCRTSGYTFTEYTMHWVKQSHEKRLEWIGGIDPSNGDTSYNQKFKGKATLTVDKSSSSAYMDLRSLTSVDSAIYYCARLEGVLPLDYWGHGTTLTVSS
VL: B5 VL
B7: MAb 7E9 (antibody, V domains shown)
VH: DVQLQESGPGLVKPSQSLSLTCSVTGHSITSGYYWNWIRQFPGNKLEWMGYISFDGRNKYNPSLKNRISITRDTSKNQFFLKLNSVTSEDTATYFCTRLSYSTLDYWGQGTSVTVSS
VL: B5 VL with V30L, F41Y, G69A, T96S, I99V

Where a chain is given by its changes, count along the chain named.

One experiment deals with T1, GST-tagged IsdA. The experiment is described as follows: cell-based or functional assay.
Turning to B1, the “Δheme binding: percent change in Δ peak absorbance at 405 nm and 368 nm” value (shortened to “Δheme binding: percent change”) was 0.5%. On the same count and under the same terms, in the case of B2 it was 0.5%; in that of B3, -0.6%. The same measure, in the same setting: under B4 stands 0.5%; under B5, 34%. For the molecule B6, the “Δheme binding: percent change” value came out at 34.4%. As for B7, the “Δheme binding: percent change” value came out at 35%.

For another experiment, the target named is GST-tagged IsdBC (Staphylococcus aureus Newman, UniProt A5IS15 328-645). The experiment is described as follows: cell-based or functional assay.
Regarding B5, the “Δheme binding: percent change” value came to 29.4%. The same measure, in the same setting: under B6 stands 29%; under B7, 29%.

For another experiment, the target named is T2, Poly-histidine tagged IsdB (Staphylococcus aureus, UniProt A5IS15 41-613).
T2 construct: also called IsdBFL; recombinant IsdB
The experiment in a line: ELISA, coated poly-His IsdB.
Description: Proteins were used to coat Nunc MaxiSorp 96-well plates at a concentration of 1 μg ml⁻¹ PBS. Plates were washed and incubated with PBS-Tween and variable concentrations of MAbs.
Regarding B1, the binding result is reported as “no binding”. Take B2: the binding result was “no binding”.
